Assay results as given in publication PMC2987821.

Target: Gp41-HR1 (HIV-1)
Experiment: SPR

B1: D5 IgG (antibody, V domains shown)
VH: QVQLVQSGAEVRKPGASVKVSCKASGDTFSSYAISWVRQAPGQGLEWMGGIIPIFGTANYAQAFQGRVTITANESTSTAYMELSSLRSEDTAIYYCARDNPTLLGSDYWGAGTLVTVSS
VL: DIQMTQSPSTLSASIGDRVTITCRASEGIYHWLAWYQQKPGKAPKLLIYKASSLASGAPSRFSGSGSGTDFTLTISSLQPDDFATYYCQQYSNYPLTFGGGTKLEIK
  Kd: 3.1 nM
  koff: 0.00103 s⁻¹
  kon: 335000 M⁻¹ s⁻¹
